Results from patent publication US20220204643A1 (published 2022).
Each block holds one binder with its values, some of them ahead of it.

Legend:
[1] = biological target: T1, olfactory receptor family 6 subfamily Q member 1 (gene/pseudogene) (human, UniProt Q8NGQ2 1-317)
T1 construct: HuProt array protein, full-length recombinant from yeast; also called OR6Q1
T1 sequence: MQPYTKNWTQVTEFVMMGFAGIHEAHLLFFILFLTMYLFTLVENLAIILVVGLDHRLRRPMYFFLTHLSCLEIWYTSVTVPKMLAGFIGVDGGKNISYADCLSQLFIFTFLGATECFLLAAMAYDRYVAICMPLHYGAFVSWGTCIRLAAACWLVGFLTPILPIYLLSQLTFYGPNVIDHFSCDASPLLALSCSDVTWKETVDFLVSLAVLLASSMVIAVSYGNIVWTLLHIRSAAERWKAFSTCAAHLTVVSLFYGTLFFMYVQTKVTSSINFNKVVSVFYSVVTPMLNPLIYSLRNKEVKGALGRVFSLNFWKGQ

[2] = biological target: T2, glycogen phosphorylase L, transcript variant 1 (human, UniProt P06737 2-847)
T2 construct: HuProt array protein, full-length recombinant from yeast; also called PYGL
T2 sequence: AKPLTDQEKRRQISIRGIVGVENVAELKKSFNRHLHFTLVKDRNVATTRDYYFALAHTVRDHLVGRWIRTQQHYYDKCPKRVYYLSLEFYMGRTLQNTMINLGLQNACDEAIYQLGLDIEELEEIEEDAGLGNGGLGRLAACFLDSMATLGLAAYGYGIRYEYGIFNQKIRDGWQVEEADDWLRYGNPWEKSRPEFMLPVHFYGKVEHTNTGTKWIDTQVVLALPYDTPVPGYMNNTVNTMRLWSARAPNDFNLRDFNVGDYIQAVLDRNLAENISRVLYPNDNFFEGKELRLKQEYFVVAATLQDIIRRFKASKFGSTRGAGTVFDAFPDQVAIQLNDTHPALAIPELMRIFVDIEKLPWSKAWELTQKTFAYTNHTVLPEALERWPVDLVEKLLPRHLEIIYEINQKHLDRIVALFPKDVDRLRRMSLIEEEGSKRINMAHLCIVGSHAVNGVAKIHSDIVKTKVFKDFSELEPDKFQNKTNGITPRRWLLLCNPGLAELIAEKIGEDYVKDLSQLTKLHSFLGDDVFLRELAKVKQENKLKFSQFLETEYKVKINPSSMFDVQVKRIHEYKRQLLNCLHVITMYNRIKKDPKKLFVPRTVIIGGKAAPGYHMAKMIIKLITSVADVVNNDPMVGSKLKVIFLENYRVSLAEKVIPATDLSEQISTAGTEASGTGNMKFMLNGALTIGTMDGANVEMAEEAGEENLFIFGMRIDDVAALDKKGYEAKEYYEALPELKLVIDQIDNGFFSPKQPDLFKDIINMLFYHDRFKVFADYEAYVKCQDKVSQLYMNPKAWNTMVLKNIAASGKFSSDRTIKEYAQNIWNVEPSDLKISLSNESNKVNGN

Reticulocalbin 3 = biological target: T3, Reticulocalbin 3 (human, UniProt Q96D15 21-328)
T3 construct: HuProt array protein, full-length recombinant from yeast; also called RCN3
T3 sequence: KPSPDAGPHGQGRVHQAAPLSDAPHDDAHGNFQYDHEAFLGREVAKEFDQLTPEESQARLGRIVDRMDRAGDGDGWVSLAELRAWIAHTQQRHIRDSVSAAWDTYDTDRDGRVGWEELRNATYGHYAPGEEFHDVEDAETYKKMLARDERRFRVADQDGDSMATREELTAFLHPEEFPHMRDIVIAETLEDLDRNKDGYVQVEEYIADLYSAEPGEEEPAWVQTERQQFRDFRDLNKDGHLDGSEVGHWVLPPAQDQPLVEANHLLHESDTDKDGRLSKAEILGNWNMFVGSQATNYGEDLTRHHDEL

[3] = biological target: T4, synaptotagmin 12, transcript variant X4 (human, UniProt Q8IV01 1-421)
T4 construct: HuProt array protein, full-length recombinant from yeast; also called SYT12
T4 sequence: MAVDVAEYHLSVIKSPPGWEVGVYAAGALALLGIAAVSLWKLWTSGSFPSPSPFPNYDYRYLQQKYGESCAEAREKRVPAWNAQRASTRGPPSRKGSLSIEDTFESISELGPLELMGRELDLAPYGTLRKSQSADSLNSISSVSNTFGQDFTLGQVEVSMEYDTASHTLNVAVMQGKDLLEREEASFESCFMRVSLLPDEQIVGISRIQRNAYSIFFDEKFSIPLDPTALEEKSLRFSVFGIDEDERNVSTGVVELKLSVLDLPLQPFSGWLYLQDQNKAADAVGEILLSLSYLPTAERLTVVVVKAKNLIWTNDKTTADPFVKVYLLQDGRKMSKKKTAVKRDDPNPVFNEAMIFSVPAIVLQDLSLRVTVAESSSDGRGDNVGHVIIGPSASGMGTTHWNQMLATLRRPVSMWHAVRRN

[4] = biological target: T5, kelch like family member 40 (human, UniProt Q2TBA0 1-621); experiment: protein array
T5 construct: on protein array; also called KLHL40
T5 sequence: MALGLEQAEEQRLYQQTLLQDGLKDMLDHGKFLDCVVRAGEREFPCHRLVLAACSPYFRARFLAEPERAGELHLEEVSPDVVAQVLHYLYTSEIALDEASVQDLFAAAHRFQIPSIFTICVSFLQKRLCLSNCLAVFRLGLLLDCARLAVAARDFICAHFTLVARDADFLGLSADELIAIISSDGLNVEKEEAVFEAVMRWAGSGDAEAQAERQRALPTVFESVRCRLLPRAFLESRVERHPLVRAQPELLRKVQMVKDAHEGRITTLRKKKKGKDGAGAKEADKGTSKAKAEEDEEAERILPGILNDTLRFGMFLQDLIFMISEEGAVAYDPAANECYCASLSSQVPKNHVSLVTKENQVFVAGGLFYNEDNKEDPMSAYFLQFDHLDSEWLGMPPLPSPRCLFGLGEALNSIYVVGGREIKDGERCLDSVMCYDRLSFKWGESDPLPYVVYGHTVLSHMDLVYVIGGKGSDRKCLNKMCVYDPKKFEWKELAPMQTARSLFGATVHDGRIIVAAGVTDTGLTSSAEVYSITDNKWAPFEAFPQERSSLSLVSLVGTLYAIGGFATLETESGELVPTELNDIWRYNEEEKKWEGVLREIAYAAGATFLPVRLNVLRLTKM

[5] = biological target: T6, membrane palmitoylated protein 2, transcript variant 3 (human, UniProt Q14168 1-576); experiment: protein array
T6 construct: on protein array; also called MPP2
T6 sequence: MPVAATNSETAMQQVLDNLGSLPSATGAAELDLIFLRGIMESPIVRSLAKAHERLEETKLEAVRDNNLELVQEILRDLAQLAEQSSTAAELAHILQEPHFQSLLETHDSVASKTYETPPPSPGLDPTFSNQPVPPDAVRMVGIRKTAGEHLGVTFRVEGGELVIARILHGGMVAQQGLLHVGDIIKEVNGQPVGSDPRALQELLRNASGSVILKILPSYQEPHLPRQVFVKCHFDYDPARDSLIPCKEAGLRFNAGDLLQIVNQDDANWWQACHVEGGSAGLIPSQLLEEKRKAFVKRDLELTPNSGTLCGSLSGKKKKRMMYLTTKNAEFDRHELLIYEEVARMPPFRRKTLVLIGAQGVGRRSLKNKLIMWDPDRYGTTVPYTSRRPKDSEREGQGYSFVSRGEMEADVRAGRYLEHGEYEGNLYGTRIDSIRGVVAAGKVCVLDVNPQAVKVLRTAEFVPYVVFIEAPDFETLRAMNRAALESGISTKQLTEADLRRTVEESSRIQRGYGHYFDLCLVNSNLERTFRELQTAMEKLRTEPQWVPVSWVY

[6] = biological target: T7, retinoid X receptor alpha, transcript variant 1 (human, UniProt P19793 1-462)
T7 construct: HuProt array protein, full-length recombinant from yeast; also called RXRA
T7 sequence: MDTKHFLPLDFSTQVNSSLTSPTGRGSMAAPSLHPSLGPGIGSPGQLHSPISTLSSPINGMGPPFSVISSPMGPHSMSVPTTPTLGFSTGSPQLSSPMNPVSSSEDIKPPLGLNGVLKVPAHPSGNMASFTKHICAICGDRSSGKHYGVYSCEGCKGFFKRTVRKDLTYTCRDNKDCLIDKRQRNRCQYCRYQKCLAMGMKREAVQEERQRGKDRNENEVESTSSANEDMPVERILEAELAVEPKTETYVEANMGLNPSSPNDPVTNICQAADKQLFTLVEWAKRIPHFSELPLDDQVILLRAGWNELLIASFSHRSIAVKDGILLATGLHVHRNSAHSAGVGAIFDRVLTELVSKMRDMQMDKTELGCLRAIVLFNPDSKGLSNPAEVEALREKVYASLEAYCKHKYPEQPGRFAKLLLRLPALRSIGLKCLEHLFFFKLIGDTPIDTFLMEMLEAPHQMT

[7] = biological target: T8, SNAP associated protein, transcript variant 1 (human, UniProt O95295 2-136)
T8 construct: HuProt array protein, full-length recombinant from yeast; also called SNAPIN
T8 sequence: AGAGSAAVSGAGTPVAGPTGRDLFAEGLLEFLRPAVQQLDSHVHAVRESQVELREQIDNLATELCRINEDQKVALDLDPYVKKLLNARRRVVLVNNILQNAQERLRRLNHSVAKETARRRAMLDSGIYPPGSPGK

[8] = biological target: T9, butyrophilin subfamily 1 member A1 (human, UniProt Q13410 27-526); experiment: protein array
T9 construct: on protein array; also called BTN1A1
T9 sequence: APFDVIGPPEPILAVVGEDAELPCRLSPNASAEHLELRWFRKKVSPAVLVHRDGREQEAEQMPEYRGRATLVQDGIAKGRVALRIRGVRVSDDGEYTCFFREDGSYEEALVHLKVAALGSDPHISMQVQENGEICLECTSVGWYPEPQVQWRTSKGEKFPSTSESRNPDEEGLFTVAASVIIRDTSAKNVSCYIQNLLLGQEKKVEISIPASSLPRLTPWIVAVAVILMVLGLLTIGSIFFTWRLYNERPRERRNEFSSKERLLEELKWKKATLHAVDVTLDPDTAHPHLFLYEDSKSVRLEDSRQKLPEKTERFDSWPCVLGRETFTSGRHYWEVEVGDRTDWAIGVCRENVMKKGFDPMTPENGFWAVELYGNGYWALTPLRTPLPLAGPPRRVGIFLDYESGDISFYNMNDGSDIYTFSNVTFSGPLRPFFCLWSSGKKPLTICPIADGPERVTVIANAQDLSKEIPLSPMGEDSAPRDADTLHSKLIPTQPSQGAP

binding result [2]: binds
binding result (Reticulocalbin 3): binds
binding result [3]: binds
B2: TBLA1007 (antibody, V domains shown)
VH: QVQLVQSGAEVKKPGASVKVSCKASGYTFTNYGFSWVRQAPGQGLEWMGRITTYNRDTIYAQKFQGRVTMTTDTSTSTAYMELRSLRSDDTAVYFCARVVPGDSVYGAFDIWGQGTMVTVSS
VL: DIQMTQSPSSLSASVGDRVTITCRASQSISSYLNWYQQKPGRAPRLLIYAASRLQIGVPSRFSGSGSGTDFTLTISSLQPEDFATYYCQQSYRMPCSFGQGTKLEI
notes: detected with anti-human IgG Fc

binding result [4]: binds
binding result [5]: binds
B3: TBRE1012 (antibody, V domains shown)
VH: QVQLQESGPGLVKPTQTLSLTCTVSGGSISSGSYYWNWIRQPAGKGLEWIGNIYTSGNTDYNPSLKSRVTISLDTSKNQVSLNLTSVTAADTAVYYCATTPSSSWYWYFDPWGQGTLVTVSS
VL: DLQMTQSPSSLSASIGDRVTITCRASQSISTYFNWYQQKPGKAPKLLIYAASSLQSGVPSRFSGSGSGTDFTLTITSLQPEDFATYYCQQTYSNPWTFGQGTKVDFKR
notes: VH/VL only

binding result [7]: binds
B5: TBLA1006 (antibody, V domains shown)
VH: VQLVDSGGGLVQPGRSLRLSCAASGFVFDDYAMHWVRQVPGKGLEWVSGISWNSVSIGYADSVKGRFTISRDNAKNSLYLQMNSLRPEDAALYYCVKSFSAEYYYYYYGMDVWGQGTTVTVSS
VL: LYVLTQPPSVSVAPGTTAWISCGGNNIGIKSVHWYQQKPGQAPLLVISYDSDRPSVIPERFSVSNSGNTVTLTISRVEAGDEADYYCQVWDNGHSHWVFGGGTKLTVLG
notes: as for B2

The next lines start with the binder.

B1: TBLA1010 (antibody, V domains shown)
VH: EVQLVESGGGLVQPGRSLRLSCAASGFPFGDYAMHWVRQAPGKGLEWVSGIGWDSGGIGYADSVKGRFTISRDIAKNSLYLEINSLRPDDTALYYCAKAAATLPYFRFAMDVWGQGTPVTVSS
VL: EIVLTQSPGTLSLSPGERATLSCRASQSVSSSYLAWYQQKPGQAPRLLIFGASTRASGIPDRFSGRGSGTEFTLTISRLEPEDFAVYYCQQYDSSPFTFGPGTKVEIKR
notes: as for B2
binding result [1]: binds

B4: TBLA1004 (antibody, V domains shown)
VH: QITLKESGPTLVKPTQTLTLTCTFSGFSLSTSGVGVGWIRQPPGKALEWLALIYWDDDKRYSPSLKSRLTITKDTSKNQVVLTMTNMDPVDTATYYCAHRAIVGLFDYWGQGTLVTVSS
VL: PSVLTQPPSASGTPGQRVTISCSGSSSNIGSNYVYWYQQLPGTAPKFLIYRNNQRPSGVPDRFSGSKSGTSASLAISGLRSEDEADYYCAAWEDSLSGPVFGGGTKLTVL
notes: as for B2
binding result [6]: binds

B6: TBRE1013 (antibody, V domains shown)
VH: EVQLVESGGGLVKPGGSLRLSCAGSGFSFSSYSMNWVRQAPGKGLEWVSSISSKSSSKNYIDSVKNRFIISRDNAKNSLYLQMNSLRAEDTAVYYCARDLELIIAAGAPLDHWGQGTLVTVSS
VL: DIQMTQSPSSLSASVGDRVTITCRASQSIKNYVNWYQQKPGEAPNLLIFAASNLQSGVPSRFTGSGSGTDFSLTISSLQPEDFAAYYCQQTYSHPRTFGQGTRVEIKR
notes: VH/VL only
binding result [8]: binds
